A word on the stoichiometry N: it is a count of units in the complex or per binding partner.

This note sets out measurements from publication PMC5274527.

Assay [1] has as its target human red cone opsin fused at its C-terminus to eGFP or mCherry (human) (UniProt P04000). Nature of the assay: FRET or BRET. Background: BRET reads energy transfer from a luciferase to a nearby fluorophore.
The target is the same in assay [2]. Nature of the assay: fluorescence correlation spectroscopy.
Assay [3] shares this target. Nature of the assay: pulsed-interleaved excitation fluorescence cross-correlation spectroscopy.
For assay [4], the target named is human red cone opsin with C-terminal 1D4 tag (pcDNA3.1(+), without eGFP) (human) (UniProt P04000). Nature of the assay: cross-linking.

In assay [1], “human red cone opsin fused at its C-terminus to eGFP or mCherry (from UniProt P04000 1-352) (receptor)” registered an FRET efficiency (average) of 3.6% and an FRET efficiency (highest single-cell value) of 12%. In assay [2], the average molecular brightness was 738 cpsm and the stoichiometry N is 2. Further, the median fc (relative cross-correlation) in assay [3] stood at 0.19.
“human red cone opsin with C-terminal 1D4 tag (pcDNA3.1(+), without eGFP) (from UniProt P04000 1-352) (receptor)”: the percent DSG dimers (of monomer plus dimer bands) in assay [4] came out at 79%.
